The values below are quoted from earlier work in publication PMC7425896, “Polypeptides derived from α-Synuclein binding partners to prevent α-Synuclein fibrils interaction with and take-up by cells” (PLoS ONE, 2020).

The target in this data set is α-Synuclein fibrils (Homo sapiens) (UniProt P37840). As to the kind of experiment: sedimentation assay.

As usually defined, the Kd is the free concentration of one partner at which half of the binding sites on the other are occupied at equilibrium, for simple one-to-one binding. Regarding Hsc70 (from UniProt P11142), the Kd was 100 nM.
